Data published in article PMC4104026.

Molecular target: Hfq (His6-tagged) (UniProt P0A6X3 1-102)
Assay: EMSA; affinity comparable to GcvB; tRNA competitor; Single-RNA EMSA: 10 mM Tris-HCl pH 7.4, 0.1 mM EDTA, 10 mM NH4Cl, 10 mM NaCl, 10 mM KCl, 1 mg/ml tRNA, 4% glycerol, RT 5 min; ~40 fmol RNA (legend); Methods say
Conditions: protein: recombinant; tags: His6; chain copies: 6; label: 32P; 3' terminator hairpin

Sequence of Hfq (His6-tagged) (P0A6X3 whole entry): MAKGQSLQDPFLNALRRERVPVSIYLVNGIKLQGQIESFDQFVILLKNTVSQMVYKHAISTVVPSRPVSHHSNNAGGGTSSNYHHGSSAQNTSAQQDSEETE

B1: AgvB (EcOnc01) sRNA (structured_RNA)
RNA: CGAUAACACAACAAUAUCAGUAUCUCAUGCUAUUGCCCGAACCCAUUCGGGCAUUUUU
- binding result: binds
